Experiment: yeast display, Sf9 membrane polyspecificity reagent, FACS + sequencing; frameworks hold sequencing errors
Summary of the method: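 Using colony PCR, genes from sorted yeast display clones were amplified, then sequenced on MiSeq at 2 × 250 and filtered by CDR length. The clones had been stained with 10% biotinylated, detergent-solubilized Sf9 membrane reagent for 1 hour at 4 °C and sorted by FACS into low and high (top ~1%) gates on anti-HA and streptavidin fluorescence. Polyreactivity labels come from the gate of origin.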

| Sequence | polyreactivity (PSR sort gate) |
| --- | --- |
| QVQLVESGGGLVQARGSLRLSCAASGRIFSKYAMGWYRQAPGKERELVAAISSSGVSTYYADSVKGRFTISRDNAKNTVYLQMNSLKPEDTAVYYCYKRTSPKRFDYWGQGTQVTVSS | high polyreactivity |
| QVQLVESGGGLVQAGGSLRLSCAASGRIFRYNAMGLYRQAPGKERELVAAISRSGGSTYYADSVKGRFTISRDNAKNTVYLQMNSLKPEDTAVYYCAVRRDGSGGNLDYWGQGTQVTVSS | high polyreactivity |
| QDQLVESGGGLVQAGGSLRLICAASGLTFKVYAMGWYRQAPGKERELVAAISWSGGSTYYADSVKGRFTISRDNAKNTVYLQMNSLKPEDTAVYYCAVEASYYVVFFPYEYWGQGTQVTVSS | low polyreactivity |
| QVQLVESGGGLVQAGGSLRLICDAYVSTFYYYAMGWYRQAPGKVRELVAAISSGGSTNYADSVKGRFTISRDNAKNTVYLQMNILKPEDTAVYYCNAYSYWWLGYDYWGQGTQVTVSS | high polyreactivity |
| QVQLVESGGGLVQAGGSLSLSCAASGRIFYVNTMGWYRQAPGKERELVATISSAASTNYADSVKGRFTISRDNAKNTVYLQMNSLKPEDTAVYYCNASRLSRLSALSGFYSWGQGTQVTVSS | low polyreactivity |
| QVQLVESGGGLVQAGGSLRLSCAASGRTFGVYVMGWYIQAPGKERELVAVITISGGSTYYADSVKGRFTISRDNAKNTVYLQMNSLKPEDTAVYYCAARTYYGYDYWGQGTQVTVSS | high polyreactivity |
| QVQLVESGGGLVQAGGSLRLSCAASGFTFYHYAMGWYRQAPGKERELVAAISRSGGSTYYADSVKGRFTISRDNAKNTVYLQMNSLKPEDTAVYYCSKVLRAKNSFDYWGQGTQVTVSS | high polyreactivity |
| QVQLVESGGGLVQAGGSLRLSCAASGGTFARNAMGWYRQAPGKERELVAAIRGGVSTNYADSVKGRFTISRDNAKNTVYLQMNSLKPEDTAVYYCNASPPTLEGYWGQGTQVTVSS | low polyreactivity |
| QVQLVESGGGLVQAGGSLRLSCAASGRTFGRYAMGWYRQAPGKERELVATITSGGSTNYADSVKGRFTISRDNAKNTVYLQMNSLKPEDTAVYYCAAEFSPSRWAYSEGALRYNYWGQGTQVNVSS | low polyreactivity |
| QVQLVESGGGLVQAGGSLRLSCAASGRTFGVYAMGWYRQAPGKERELVAGIRWRGGSTYYADSVKGRFTISRDNAKNTVYLQMNSLKPEDTAVYYCAADVYLVKYDYWGQGTQVTVSS | low polyreactivity |
| QVQLVESGGGLVQAGGSLRLSCAASGRTRYPYTMGWYRQAPGKERELVAAITSSGGRTTYADSVKGRFTISRDNAKNTVFLQMYSLKPEDRAVYYCAKKFRPGYRSQYLRYSWGQGSQVTVSS | low polyreactivity |
| QVQLVESGAGLVQAGGSLRISCAASGITFYRNAMGWYRQAPGKERELVAAITWNGGRTYYADSVKGRFTISRDNAKNTVYLQMNSLNPEDTAVYYCAKRYGSTQSRYDFWGPGTQVTVSS | high polyreactivity |
| QVQLVESGAGLVQARGSLRLSCAASGRIFYQYAMGWYRQAPGKERELVAAISWNGGRTYYADSVKGRFTISRDNAKNTVYLQMNSLKPEDTAVYYCAASFTGYSRDRYGYWGQGTQVTVSS | high polyreactivity |
| QVQLVESGGGLVQAGGSLRLSCAASGRIFLYYAMGWYRQAPGKERELVAAIDSSGGNTNYADSVKGRFTISRDNAKNTVYLQMNSLKPEDTAVYYCAADFYVSADRWPNYDYWGHGTQVTVSS | low polyreactivity |
| QVQLVESGGGLVQAGGTLRLSCAASGRTFYYYTMGWYRQAPGKERDLVAAISSTGNTYYADSVKGRFTISRDNAKNSVYLQMNSLNPADTALYYCAASGGSSDAYWGQGTQVTVSS | high polyreactivity |
| QVQIVESGGGLVQAGGSLSLSCAASGYNFYSYAMGWYRQAPGTKRELVAAITNSGGSTYYADSVKGRFTISRDNAKNTVYLQMNSLKPEDTAVYSCNASYWRAYSYKYDYWGQGTQVTVSS | high polyreactivity |
| QVQLVESGGGLGQAGGSLRLSCAASGSIIPWNVMGWSRQARGKEREFVAGITFRVGSTYYADSVKGRFTISRDNAKNTVYLQMNSLKPEDTAVYYCAALIRAVDRYTYRYGYWGQGTQVTVSS | high polyreactivity |
| QVQLVESGGGLVQAGGSLRLSCAASGRTFYGYAMGWYRQAPGKEREFVAAITYSGGRTYYADSVKGRFTISRDNAKNTVYLQMNSLKPEETAVYYCNAYYYYVNQGRYEYGYWGQGTQVTVSS | high polyreactivity |
| QVQLVESGGGLVQAGGSLRLSCAASGSTFGPYAMGWYRQAPGKERELVATISGSRSSTYYADSVKGRFTISRDNAKNTVYLQMNSLKPEDTAVYYCATDLYFDLRYDYWGQGTQVTVSS | low polyreactivity |
| QVQLEESGGGLVQAGGSLRLSCPASGRTFSVYAIGSYRPAPGKERELLAGITSGGSTNYADSVKGRFTISRDNAKNTVYLQMISLKPEDTAVYYCAAANVYAGFGFVSIGDYWGQGTQVTVSS | low polyreactivity |
| QVQLVESGGGLVQAGGSLRLSCAASGFTFGVYAMGWYRQAPGKERELVAAISVSGGRTYYADSVKGRFTISRDNAKNTVYLQMNSLKPEDTAVYYCAADLGLKTSSRRTSMYYWGQGTQVTVSS | high polyreactivity |
| QDQLVESGGGLVQAGGSLRLSCAASGLTFGRYAMGWYRQAPGKERELVAAITWNGDGTYYADSVKGRFTISRDNAKNTVYLQMNSQKPEDSAVFYCAADYYTYLYGRYNYWGQGTQVTVSS | low polyreactivity |

| Sequence | polyreactivity (PSR sort gate) |
| --- | --- |
| QVQLVESGGGLVQAGGSLRLSCAASGITFSGYGMGWYRQAPGKERELVAAISRSGGSTYYADSVKGRFTISRDNAKNTVYLQMNSLKPEDTAVYYCATASRTSRTGWAGYYWGQGTQVTVSS | high polyreactivity |
| QVQLVESGGGLVQAGGSLRLSCAASGRVLPPNAIGWYRQAPGKERELVAAINWSSGRTYYADSVKGRFTISRDYAKNSVYLQMNSLKPEDTAVYDCAKAYRYAYGYDYWGQGTQVTVSS | high polyreactivity |
| QVQLVDSGGGLVQAGGSLRLSCAASGGTFQGNAMGWYRQAPGKEREFVATITRGGGSKYYADSVKGRFTISRDNAKNTVYLQMNSLKPEDTAVYFCNAYLVSRYPGDYWGQGTQVTVSP | high polyreactivity |
| QVQLVESGGGLVQAGGSLRLSCAASGFTFTRNAMGWYRQAPGKERELVAAINFRSDRTFYADSVKGRFTISRDNAKNTVYLQMNSLKPEDTAVYYCAAQVGRGYEVYPVYKYGYWGQGTQVTVSS | high polyreactivity |
| QVQLVESGGGLVQAGGSLRLSCAASGSIFGAYAMGWYRQAPGKERELVAVIRWGGGSTYADSVKGRFTISRDNAKNTVYLQMNRLKPEDTAVYYCNRDKSWADLYSHAYDYWGQGTQVTVSS | low polyreactivity |
| QVQLVESGVGLVQAGGSLRLSCAASGSTFEVHSMGWYRQAPGKERELVATITRSGGSTYYADSVKGRFTISRDNGKNTVYLQMNSLKPEDTAVYYCNALWELKWGQGTQVTVSS | low polyreactivity |
| QVQLVESGGGLVQAGGSLRLSCASSGSTFISYAMGWYRPAPGKERELVAAISRRGDSTYYADSVKGRFTISRDNAKNTVYLQMNSLKPEDSAVYYCNAVEWDDYYYSYADYGYSYDYWGQGTQVTVSS | low polyreactivity |
| QVQLVESGGGLVQAGGSLRLSCAASGSIFKIYAMGWYRQAPGKARELVATISINGGSTYYADSVKGRFTISRDNAKNTVYLQMNSLKPEDTAVYDCNKVNEYITSQDDYGGQGTQVTVSS | low polyreactivity |
| QVQLVESGGGLVQAGGSLRLSCAASGRIFFATAMGWYRQAPGNERELVAAITSDGSTDYADSVKGRFTISRDNAKNTVYLQMNSLKPEDTAVYDCNADAYYRYGITMDYWGQGTQVTVSS | low polyreactivity |
| QVQLVESGGGLVQAGGSLRLSCAASGRIFGLNTMGRYRQAPGKERELVAAITSSAGSTYYADSVKGRCTISRDNAKNTVYLQMNSLKPEDTAVYYSAARVSYLGSFTSQRYYYWGLGTQVTVSS | high polyreactivity |
| QVQLVESGGGLVQAGGSLRLSCAASGSTFVDNLMGWYRQSPGKERELVAAIDFSTGSTYYADSVKGRFTISRDNAKNTVYLQMNSLKPDDTAVYYCNAKYYSWDWSSFNYWGQGTQVTVSS | low polyreactivity |
| QVQLVESGGGLVQAGGSLRLSCAASGRIFLINAMGWYRQAPGKERELVAAITSSGGSTYYADSVKGRFTISRDNAKNTVYLQMNSLKPEDTAVYYCATRSYRGRPYNYWGQGTQVTVSS | high polyreactivity |
| QVQLVESGGGLVQAGGSLRLSCAASGFIFQKYAMGWYRQAPGKERELVAAITKRGGSTYYADSVKGRFTISRDNAKNTVYLQMNSLKPEDTAVYYCAAYAYDYEYDYWGQGTQVTVSS | high polyreactivity |
| QVQLVESGGGLVQAGGSLRLSCAASGSIFYINAMGWYRQAPGKERELVAAINRGGSTNYADSVKGRFTISRDNAKNTVYLQMNSLKPEDTAVYYCAAYIYKTYRYYYWGQGTQVTVSS | high polyreactivity |
| QVLLVESGGGLVQAGGSLRLSCAASGRTFVTNAMGWYTQAPGKERELVAGITRRGGSTYYADSVKGRFTISRDNAKNTVYLQMNSLKPEDTAVYYCARRGDTSTRYYYWGQGTQVTVSS | high polyreactivity |
| QVQLVESGGGLVQAGGSLRLSCAASGSTFIGNAMGWYRQAPGKERELVAAITSSGGSTYYADSVKGRFTISRDNAKNTVYLQLNSLKPEDTAVYYCAAKTWARGHYGYQARSNYWGQGTQVTVSS | high polyreactivity |
| QVQLVESGGGLVQAGGSLRLSCDASGLTFSGYVMGWYRQAPGKESELVAAISLSGGSTYYADSVKGRFTISRDNAKNTVYLQMNSLKPEDTAVYYCAARTPFYNSYRRDYWGQGTQVTVSS | high polyreactivity |
| QVQLVESGGGLVQAGGSLLLSCAASGFTFSGYVMGWYRQAPGKERELVAAISNSGGRTYADSVKGRFTISRDNAKNTVYLQMNSLKPEDTAVYYCAKKPGGFSQASRVDYDYWGQGTQVTVSS | low polyreactivity |
| QVQLVESGGGLVQAGGSLRLSSAASGRIFAHNAMGWSRQAPGKERELVAAITWSGGSTYYADSVKGRFTISRDNAKNTVYLQMNSLKPEDTAVYYCNTDSHGHLYIYWGQGNQVTVSS | low polyreactivity |
| QVQLVESGGCLVQAGGRLRLSCAASGLTLYKNGMGWYRQAPGKERELVAVISRSGGRTYYADSVKGRFTISRDNAKNTVFLHMNSLKPEDTAVYYCAALQYGPRYTYYYWGQGTQVTVSS | high polyreactivity |
| QVQLVESGGGLVQAGGSLRLSCAASGSTFYVYVMGGYRQAPGKERELVAAITSSGDITYYADSVKGRFTISRYNAKITVYLQMNSLIPEETAVYYCAASPFRRRYNGENDYWGQGTQVTGSS | high polyreactivity |
